Results published in patent publication US20210032299A1 (Eli Lilly, published 2021).
Starred links: 1 amine or outer side, 2 acyl side, 3 side chain; linkers in the order of their positions; H or OH if unused. Non-standard residues stand in square brackets, D forms with d. Groups on a side chain read outwards from the residue. No end group written: not given here. *: point of attachment. C20 diacid = O=C(O)CCCCCCCCCCCCCCCCCCC(=O)*; γGlu = O=C(O)[C@H](CCC(=O)[*:2])N[*:1]; αMeY = C[C@](N)(Cc1ccc(O)cc1)C(=O)O; αMeL = CC(C)C[C@](C)(N)C(=O)O; AEEA = NCCOCCOCC(=O)O; Aib = CC(C)(N)C(=O)O

B1: Example 90 (peptide)
peptide: Y[Aib]EGTFISDYSI[αMeL]LDKK([AEEA-AEEA-γGlu-C20 diacid])HQ[Aib]DFVE[αMeY]LLEAGPSSGAPPPS-NH2
modifications: N-terminus assumed
SMILES: CC[C@H](C)[C@H](NC(=O)[C@H](Cc1ccccc1)NC(=O)[C@@H](NC(=O)CNC(=O)[C@H](CCC(=O)O)NC(=O)C(C)(C)NC(=O)[C@@H](N)Cc1ccc(O)cc1)[C@@H](C)O)C(=O)N[C@@H](CO)C(=O)N[C@@H](CC(=O)O)C(=O)N[C@@H](Cc1ccc(O)cc1)C(=O)N[C@@H](CO)C(=O)N[C@H](C(=O)N[C@@](C)(CC(C)C)C(=O)N[C@@H](CC(C)C)C(=O)N[C@@H](CC(=O)O)C(=O)N[C@@H](CCCCN)C(=O)N[C@@H](CCCCNC(=O)COCCOCCNC(=O)COCCOCCNC(=O)CC[C@H](NC(=O)CCCCCCCCCCCCCCCCCCC(=O)O)C(=O)O)C(=O)N[C@@H](Cc1c[nH]cn1)C(=O)N[C@@H](CCC(N)=O)C(=O)NC(C)(C)C(=O)N[C@@H](CC(=O)O)C(=O)N[C@@H](Cc1ccccc1)C(=O)N[C@H](C(=O)N[C@@H](CCC(=O)O)C(=O)N[C@@](C)(Cc1ccc(O)cc1)C(=O)N[C@@H](CC(C)C)C(=O)N[C@@H](CC(C)C)C(=O)N[C@@H](CCC(=O)O)C(=O)N[C@@H](C)C(=O)NCC(=O)N1CCC[C@H]1C(=O)N[C@@H](CO)C(=O)N[C@@H](CO)C(=O)NCC(=O)N[C@@H](C)C(=O)N1CCC[C@H]1C(=O)N1CCC[C@H]1C(=O)N1CCC[C@H]1C(=O)N[C@@H](CO)C(N)=O)C(C)C)[C@@H](C)CC
B2: Example 91 (peptide)
peptide: Y[Aib]EGTFISDYSI[αMeL]LDKK([AEEA-AEEA-γGlu-C20 diacid])HQ[Aib]DFVE[αMeY]LLEGGPSSGAPPPS-NH2
modifications: N-terminus assumed
SMILES: CC[C@H](C)[C@H](NC(=O)[C@H](Cc1ccccc1)NC(=O)[C@@H](NC(=O)CNC(=O)[C@H](CCC(=O)O)NC(=O)C(C)(C)NC(=O)[C@@H](N)Cc1ccc(O)cc1)[C@@H](C)O)C(=O)N[C@@H](CO)C(=O)N[C@@H](CC(=O)O)C(=O)N[C@@H](Cc1ccc(O)cc1)C(=O)N[C@@H](CO)C(=O)N[C@H](C(=O)N[C@@](C)(CC(C)C)C(=O)N[C@@H](CC(C)C)C(=O)N[C@@H](CC(=O)O)C(=O)N[C@@H](CCCCN)C(=O)N[C@@H](CCCCNC(=O)COCCOCCNC(=O)COCCOCCNC(=O)CC[C@H](NC(=O)CCCCCCCCCCCCCCCCCCC(=O)O)C(=O)O)C(=O)N[C@@H](Cc1c[nH]cn1)C(=O)N[C@@H](CCC(N)=O)C(=O)NC(C)(C)C(=O)N[C@@H](CC(=O)O)C(=O)N[C@@H](Cc1ccccc1)C(=O)N[C@H](C(=O)N[C@@H](CCC(=O)O)C(=O)N[C@@](C)(Cc1ccc(O)cc1)C(=O)N[C@@H](CC(C)C)C(=O)N[C@@H](CC(C)C)C(=O)N[C@@H](CCC(=O)O)C(=O)NCC(=O)NCC(=O)N1CCC[C@H]1C(=O)N[C@@H](CO)C(=O)N[C@@H](CO)C(=O)NCC(=O)N[C@@H](C)C(=O)N1CCC[C@H]1C(=O)N1CCC[C@H]1C(=O)N1CCC[C@H]1C(=O)N[C@@H](CO)C(N)=O)C(C)C)[C@@H](C)CC
B3: Example 8 (peptide)
peptide: Y[Aib]EGTFISDYSILLDKK([AEEA-AEEA-γGlu-C20 diacid])AQ[Aib]DFVNWLLAQGPSSGAPPPS-NH2
modifications: N-terminus assumed
SMILES: CC[C@H](C)[C@H](NC(=O)[C@H](CO)NC(=O)[C@H](Cc1ccc(O)cc1)NC(=O)[C@H](CC(=O)O)NC(=O)[C@H](CO)NC(=O)[C@@H](NC(=O)[C@H](Cc1ccccc1)NC(=O)[C@@H](NC(=O)CNC(=O)[C@H](CCC(=O)O)NC(=O)C(C)(C)NC(=O)[C@@H](N)Cc1ccc(O)cc1)[C@@H](C)O)[C@@H](C)CC)C(=O)N[C@@H](CC(C)C)C(=O)N[C@@H](CC(C)C)C(=O)N[C@@H](CC(=O)O)C(=O)N[C@@H](CCCCN)C(=O)N[C@@H](CCCCNC(=O)COCCOCCNC(=O)COCCOCCNC(=O)CC[C@H](NC(=O)CCCCCCCCCCCCCCCCCCC(=O)O)C(=O)O)C(=O)N[C@@H](C)C(=O)N[C@@H](CCC(N)=O)C(=O)NC(C)(C)C(=O)N[C@@H](CC(=O)O)C(=O)N[C@@H](Cc1ccccc1)C(=O)N[C@H](C(=O)N[C@@H](CC(N)=O)C(=O)N[C@@H](Cc1c[nH]c2ccccc12)C(=O)N[C@@H](CC(C)C)C(=O)N[C@@H](CC(C)C)C(=O)N[C@@H](C)C(=O)N[C@@H](CCC(N)=O)C(=O)NCC(=O)N1CCC[C@H]1C(=O)N[C@@H](CO)C(=O)N[C@@H](CO)C(=O)NCC(=O)N[C@@H](C)C(=O)N1CCC[C@H]1C(=O)N1CCC[C@H]1C(=O)N1CCC[C@H]1C(=O)N[C@@H](CO)C(N)=O)C(C)C
B4: Example 11 (peptide)
peptide: Y[dA]EGTFISDYSILLDKK([AEEA-AEEA-γGlu-C20 diacid])AQQDFVNWLLAQGPSSGAPPPS-NH2
modifications: N-terminus assumed
SMILES: CC[C@H](C)[C@H](NC(=O)[C@H](CO)NC(=O)[C@H](Cc1ccc(O)cc1)NC(=O)[C@H](CC(=O)O)NC(=O)[C@H](CO)NC(=O)[C@@H](NC(=O)[C@H](Cc1ccccc1)NC(=O)[C@@H](NC(=O)CNC(=O)[C@H](CCC(=O)O)NC(=O)[C@@H](C)NC(=O)[C@@H](N)Cc1ccc(O)cc1)[C@@H](C)O)[C@@H](C)CC)C(=O)N[C@@H](CC(C)C)C(=O)N[C@@H](CC(C)C)C(=O)N[C@@H](CC(=O)O)C(=O)N[C@@H](CCCCN)C(=O)N[C@@H](CCCCNC(=O)COCCOCCNC(=O)COCCOCCNC(=O)CC[C@H](NC(=O)CCCCCCCCCCCCCCCCCCC(=O)O)C(=O)O)C(=O)N[C@@H](C)C(=O)N[C@@H](CCC(N)=O)C(=O)N[C@@H](CCC(N)=O)C(=O)N[C@@H](CC(=O)O)C(=O)N[C@@H](Cc1ccccc1)C(=O)N[C@H](C(=O)N[C@@H](CC(N)=O)C(=O)N[C@@H](Cc1c[nH]c2ccccc12)C(=O)N[C@@H](CC(C)C)C(=O)N[C@@H](CC(C)C)C(=O)N[C@@H](C)C(=O)N[C@@H](CCC(N)=O)C(=O)NCC(=O)N1CCC[C@H]1C(=O)N[C@@H](CO)C(=O)N[C@@H](CO)C(=O)NCC(=O)N[C@@H](C)C(=O)N1CCC[C@H]1C(=O)N1CCC[C@H]1C(=O)N1CCC[C@H]1C(=O)N[C@@H](CO)C(N)=O)C(C)C
B5: Example 12 (peptide)
peptide: Y[dA]EGTFISDYSILLDKK([AEEA-AEEA-γGlu-C20 diacid])AQQDFVNWLLAGGPSSGAPPPS-NH2
modifications: N-terminus assumed
SMILES: CC[C@H](C)[C@H](NC(=O)[C@H](CO)NC(=O)[C@H](Cc1ccc(O)cc1)NC(=O)[C@H](CC(=O)O)NC(=O)[C@H](CO)NC(=O)[C@@H](NC(=O)[C@H](Cc1ccccc1)NC(=O)[C@@H](NC(=O)CNC(=O)[C@H](CCC(=O)O)NC(=O)[C@@H](C)NC(=O)[C@@H](N)Cc1ccc(O)cc1)[C@@H](C)O)[C@@H](C)CC)C(=O)N[C@@H](CC(C)C)C(=O)N[C@@H](CC(C)C)C(=O)N[C@@H](CC(=O)O)C(=O)N[C@@H](CCCCN)C(=O)N[C@@H](CCCCNC(=O)COCCOCCNC(=O)COCCOCCNC(=O)CC[C@H](NC(=O)CCCCCCCCCCCCCCCCCCC(=O)O)C(=O)O)C(=O)N[C@@H](C)C(=O)N[C@@H](CCC(N)=O)C(=O)N[C@@H](CCC(N)=O)C(=O)N[C@@H](CC(=O)O)C(=O)N[C@@H](Cc1ccccc1)C(=O)N[C@H](C(=O)N[C@@H](CC(N)=O)C(=O)N[C@@H](Cc1c[nH]c2ccccc12)C(=O)N[C@@H](CC(C)C)C(=O)N[C@@H](CC(C)C)C(=O)N[C@@H](C)C(=O)NCC(=O)NCC(=O)N1CCC[C@H]1C(=O)N[C@@H](CO)C(=O)N[C@@H](CO)C(=O)NCC(=O)N[C@@H](C)C(=O)N1CCC[C@H]1C(=O)N1CCC[C@H]1C(=O)N1CCC[C@H]1C(=O)N[C@@H](CO)C(N)=O)C(C)C
B6: Example 18 (peptide)
peptide: YXEGTFISDYSILLDKKAQXDFVNXLLAQGPSSGAPPPS
modifications: D-Ala2; K17((2-[2-(2-Amino-ethoxy)-ethoxy]-acetyl)2-(γ-Glu)-CO-(CH2)16-CO2H); Aib20; 4-Pal25; C-terminal amide

What was measured:
[1] = target: T1, human glucose-dependent insulinotropic polypeptide (GIP) receptor (human, UniProt P48546 22-466); experiment: SPA, displacement of [125I]-GIP from hGIPR membranes, 0.1% bacitracin
T1 construct: whole, on cells; Assayed as crude membranes of stably transfected CHO cells; also called hGIPR; human GIP receptor
T1 sequence (looked up): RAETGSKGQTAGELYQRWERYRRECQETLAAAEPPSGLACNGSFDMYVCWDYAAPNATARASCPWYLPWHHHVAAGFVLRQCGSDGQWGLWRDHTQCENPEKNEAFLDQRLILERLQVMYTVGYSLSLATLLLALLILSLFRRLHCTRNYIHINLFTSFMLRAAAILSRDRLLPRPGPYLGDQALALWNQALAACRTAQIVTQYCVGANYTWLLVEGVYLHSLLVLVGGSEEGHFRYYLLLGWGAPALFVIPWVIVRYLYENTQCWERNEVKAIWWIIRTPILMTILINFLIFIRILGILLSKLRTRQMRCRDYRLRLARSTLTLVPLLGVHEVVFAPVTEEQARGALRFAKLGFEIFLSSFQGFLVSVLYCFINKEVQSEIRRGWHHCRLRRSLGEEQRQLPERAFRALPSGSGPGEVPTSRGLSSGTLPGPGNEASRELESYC

[2] = target: T2, human glucagon receptor (human, UniProt P47871 26-477); experiment: SPA, displacement of [125I]-Gcg from hGcgR membranes, 0.1% bacitracin
T2 construct: whole, on cells; Assayed as crude membranes of stably transfected HEK293 cells; also called hGcgR; GcgR
T2 sequence (P47871 26-477): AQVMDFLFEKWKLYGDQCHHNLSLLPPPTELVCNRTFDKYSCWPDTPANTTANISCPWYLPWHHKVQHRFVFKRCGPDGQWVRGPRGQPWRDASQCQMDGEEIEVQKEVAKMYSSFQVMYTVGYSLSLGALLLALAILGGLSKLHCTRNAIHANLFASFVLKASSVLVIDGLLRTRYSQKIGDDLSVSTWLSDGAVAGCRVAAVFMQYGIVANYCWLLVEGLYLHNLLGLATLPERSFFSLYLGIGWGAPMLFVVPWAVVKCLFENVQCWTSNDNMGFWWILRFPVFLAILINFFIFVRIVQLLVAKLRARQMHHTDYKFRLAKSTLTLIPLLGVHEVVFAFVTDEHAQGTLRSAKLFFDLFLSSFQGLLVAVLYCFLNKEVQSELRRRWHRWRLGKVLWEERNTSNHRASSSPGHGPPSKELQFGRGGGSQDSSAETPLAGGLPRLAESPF
In short: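 Binding buffer: 25 mM HEPES pH 7.4, 2.5 mM CaCl₂, 1 mM MgCl₂, 0.003% Tween-20, protease inhibitors without EDTA. Counted by scintillation after 12 h incubation/settling at room temperature. Four-parameter nonlinear fit; Kᵢ given as geometric mean ± SEM of independent replicates run on different days.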

[3] = target: T3, human GLP-1 receptor (human, UniProt P43220 24-463); experiment: SPA, displacement of [125I]-GLP-1 from hGLP-1R membranes, 0.1% bacitracin
T3 construct: whole, on cells; Assayed as crude membranes of stably transfected HEK293 cells; also called hGLP1R; hGLP-1R
In short: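 Binding buffer: 25 mM HEPES pH 7.4, 2.5 mM CaCl₂, 1 mM MgCl₂, 0.1% bacitracin, 0.003% Tween-20, protease inhibitors without EDTA. Four-parameter nonlinear regression; Kᵢ given as geometric mean ± SEM, n = independent replicates run on different days.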

| Binder | Ki [1] [nM] | Ki [2] [nM] | Ki [3] [nM] |
| --- | --- | --- | --- |
| B1 | 0.129 | 112 | 102 |
| B2 | 0.122 | 54.4 | 37.4 |
| B3 | 0.027 | 101 | 38.1 |
| B4 | 0.0584 | 163 | 85.9 |
| B5 | 0.0876 | 134 | 46.8 |
| B6 | 0.0331 | 463 | 158 |
